# Columns and labels:
# KLK2 [1] = target: T1, KLK2 (UniProt P20151 25-261, limits assumed); assay: cell-based or functional assay
# KLK2 [2] = target: T1, KLK2; assay: cell-based or functional assay; remark: listed apart in the source
# T1 sequence (P20151 25-261 limits assumed): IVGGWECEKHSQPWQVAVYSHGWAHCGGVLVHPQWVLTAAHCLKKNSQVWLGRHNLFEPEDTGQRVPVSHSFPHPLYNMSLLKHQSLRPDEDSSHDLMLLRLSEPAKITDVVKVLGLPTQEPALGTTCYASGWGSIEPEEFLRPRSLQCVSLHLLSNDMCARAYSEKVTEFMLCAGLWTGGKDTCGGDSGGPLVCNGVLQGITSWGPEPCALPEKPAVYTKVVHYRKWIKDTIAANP
Binder,"ADCC activity, percent cell killing of VCaP cells by PBMC (KLK2 [1]) [%]","ADCC killing EC50 (M), PBMC effector cells on VCaP cells, 48 hours (KLK2 [2]) [M]"
KL2B870 (KL2B30 in hIgG1-RE) (antibody) heavy: not shown light: DIQMTQSPSFLSASVGDRVTITCRASQGISSYLAWYQQKPGKAPKFLIYAASTLQSGVPSRFSGSGSGTEFTLTISSLQPEDFATYYCQQLNSYPLTFGGGTKVEIKRTVAAPSVFIFPPSDEQLKSGTASVVCLLNNFYPREAKVQWKVDNALQSGNSQESVTEQDSKDSTYSLSSTLTLSKADYEKHKVYACEVTHQGLSSPVTKSFNRGEC,~73,1e-09
"KL2B872.CLF (antibody, human IgG1, kappa, low fucosylation of the Fc oligosaccharide (less than 10% fucosylation)) heavy: not shown light: DIQMTQSPSFLSASVGDRVTITCRASQGISSYLAWYQQKPGKAPKFLIYAASTLQSGVPSRFSGSGSGTEFTLTISSLQPEDFATYYCQQLNSYPLTFGGGTKVEIKRTVAAPSVFIFPPSDEQLKSGTASVVCLLNNFYPREAKVQWKVDNALQSGNSQESVTEQDSKDSTYSLSSTLTLSKADYEKHKVYACEVTHQGLSSPVTKSFNRGEC",~85,4.12e-10
"KL2B870.CLF (antibody, human IgG1, kappa, low fucosylation of the Fc oligosaccharide (less than 10% fucosylation)) heavy: not shown light: DIQMTQSPSFLSASVGDRVTITCRASQGISSYLAWYQQKPGKAPKFLIYAASTLQSGVPSRFSGSGSGTEFTLTISSLQPEDFATYYCQQLNSYPLTFGGGTKVEIKRTVAAPSVFIFPPSDEQLKSGTASVVCLLNNFYPREAKVQWKVDNALQSGNSQESVTEQDSKDSTYSLSSTLTLSKADYEKHKVYACEVTHQGLSSPVTKSFNRGEC",~89,3.54e-10

# Source: patent US20250230254A1 (Janssen / Centocor, published 2025)
